# Results from US6964763.
# pKd: −log10 of the molar value.
# Columns and labels:
# [1] = target: Recombinant baculovirus-expressed HIV-1 gp120 derived from the MN isolate (HIV-1 isolate MN) (UniProt P05877); assay: competition: 125I-CD4 on immobilized gp120, 10-fold molar excess of peptide; isolate (MN or LAI) not stated
# [2] = target: Recombinant baculovirus-expressed HIV-1 gp120 derived from the LAV isolate (HIV-1 isolate LAV (LAI)) (UniProt P03377); assay: as above
# [3] = target: CHO cell-expressed soluble recombinant CD4 (UniProt P01730); assay: competition: 125I-CD4 on immobilized gp120 (MN and LAI), 10-fold molar excess of fusion protein
# [4] = target: CSVTCG peptide derived from TSP1 properdin-like Type 1 repeat; assay: solid phase binding, 125I-gp120 on immobilized peptide, saturation isotherms
Substance,% inhibition [1] [%],% inhibition [3] [%],other results
CSVTCG peptide derived from TSP1 properdin-like Type 1 repeat,53,–,–
GRGDS peptide derived from TSP1 calcium binding Type 3 repeat,4,–,% inhibition [2]: 4%
GST/CD36 fusion protein CFP67-157 (from UniProt P16671 67-157),–,89,–
GST/LIMPII fusion protein LFP75-155 (from UniProt Q14108 75-155),–,89,–
GST/LIMPII fusion protein LFP156-243 (from UniProt Q14108 156-243),–,32,–
Recombinant baculovirus-expressed HIV-1 gp120 derived from the LAV isolate (from UniProt P03377 33-516),–,–,pKd [4]: 6.52
